For part of these data: Variants at the floor of the assay were thinned out.
B1: TPR t1 (parent)
chain: GACCAAUCUGCCCUCAGAGCUCGAGAACAUCUUCGGAUGCAGAGGAGGCAGGCUUCGGUGGCGCGAUAGCGCCAACGUCCUCAACCUCCAAUGCAUCCCACCACAUGAUGAUGCCUGAAGAGCCUUGGUUUUUUG
B2: TPR 5TU (parent)
chain: GGAUCUUCUCGAUCUAACAAAAAAGACAAAUCUGCCACAAAGCUUGAGAGCAUCUUCGGAUGCAGAGGCGGCAGCCUUCGGUGGCGCGAUAGCGCCAACGUUCUCAACUAUGACACGCAAAACGCGUGCUCCGUUGAAUGGAGUUUAUCAUG

Variants of: B1
Experiment: polymerase ribozyme fitness, log enrichment relative to wild type (log ratio); higher = more active; in vitro selection for triplet polymerase activity
Summary of the method: (§1)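 Libraries of mutants in each subunit of a heterodimeric triplet polymerase ribozyme were generated by PCR and transcribed. In triplicate, each went through one in vitro selection round: annealing with biotinylated primer, partner subunit and triplets; frozen incubation at −7 °C; gel excision of extended constructs; streptavidin-bead capture; RT-PCR. Fitness, taken from Illumina sequencing of input and output libraries, is the logarithm of a genotype's enrichment over wild-type enrichment, averaged across replicates with inverse-variance weights. The logarithm is base 2, and genotypes needed ≥10 input reads and ≥1 read per output to be kept.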

Variant | polymerase ribozyme fitness (log ratio)
A105U G117A | -4.52
U112C A118U | 1.35
C101G C123U | -0.756
C123A U130A | 0.213
C102A U109A | -5.92
U106A U112A | 0.701
C104G | -6.88
C104A | -1.45
C104U | 0.111
U116C U129G U132C | -3.87
C123A U126A U130G U133G | 0.742
U109A U116C | -7.07
G110A G135U | -1.92
G117C U129A | -6.61
C102A U112G U132A | -2.53
G107A U125G | -5.84
G120U U126G U132A | -0.734
G120A U129G | -0.391
C102A G113A | -2.68
C102A C114U | -3.69

Variant | polymerase ribozyme fitness (log ratio)
C101U G107A | -4.66
G117U C124A | -0.212
A103U A121G C123U | -2.56
U126C U132C | -1.79
U112G G117U | -1.25
U112G G117A | -2.9
U112C C124G G128A | -0.155
A118U G120U U133G | -0.107
C101U | -0.0389
C114A U133A G135C | -1.08
G117A A121U | 1.08
A108C | -3.71
A108G | -1.19
A108U | -4.97
C104A C114G | -3.81
G120A G127C G135U | -0.669
G113A C123G C124A | -3.66
A111C U133C | 1.26
A111C C114G | -3.93

Variants of: B2
Experiment: as above
Summary of the method: as §1

Variant | polymerase ribozyme fitness (log ratio)
A3C C10G C57A G83A | -3.78
A3C A21C C35A C85U C125U | ≤ -4.2
A3C C8U C18U A49G C87A | ≤ -4.2
A3C C10G A29U U33G C38U C63U | ≤ -4.2
A3C C10G G11U A47U G48A G58C U82G G83A A137U | ≤ -4.2
A3C A23U U44A U45C C95U C105G A106C C123U A137G | ≤ -4.2
A3C A16U C93G C118U U130G | ≤ -4.2
A3C C10A G11U U55A G81C C85U G128A | ≤ -4.2
A3C A12U U56A C93A A98U A107G C129U | ≤ -4.2
A3C A24G A73U C93A | ≤ -4.2
A3C C8G C76U C87A A106U | ≤ -4.2
A3C C14G A52C C93U G141U | -4.16
A3C A16G | -1.12
A3C C18G U56A C57A C93G U146G | ≤ -4.2
A3C C14U A16G G59A C87A | ≤ -4.2
G1U | 0.22
A3C A22U C85G | -2.18
A3C A60G | -0.264
A3C C5U C43U G70C G84A A106U A113C | ≤ -4.2
A3C A41G G84A G126C | -0.499
A3C C14A A26G G50C A91G G117A C125U G140A G143C | ≤ -4.2
A3C C14G A39C G81U C96U C105U A121U U134C U135C U148C | ≤ -4.2
A3C A16C G48A C96G | -3.42

Variant | polymerase ribozyme fitness (log ratio)
A3C A16U C54A C87U U104G G141C | ≤ -4.2
A3C C36U G83A | -3.09
A3C A16G C99G U102G A106U | ≤ -4.2
A3C A97U U135G G140C | ≤ -4.2
A3C C8U U61G G71C G80C C93A C125G U127C U145C G152U | ≤ -4.2
A3C A20C C38U A41C U53A G71A C93A G94U G126C | ≤ -4.2
A3C A28U U77A C93U C129A U148G | ≤ -4.2
A3C C36G A60C G83U C118G U151C | ≤ -4.2
A3C A49C C96A | ≤ -4.2
A3C A12G G25C A52C C93U C116A | -3.91
A3C A17U A26U C54A C75U C93U C103G G143C | ≤ -4.2
A3C C18U A49U G62C A66C G67U C96A C99G U134C U145C A147C U151G | ≤ -4.2
A3C C43U A89U G92A C125G | ≤ -4.2
A3C C43U U53A U61G U101G U139A | ≤ -4.2
A3C C10G A49C C54U A60U A91C G100A G136U U139C | ≤ -4.2
A3C C32U G59A | -3.67
A3C A28G A37U A52U G83U | ≤ -4.2
A3C C27U C35G C57A G84A C87U | ≤ -4.2
A3C A24G C36U A41U C72U C85A A91U U151A G152C | ≤ -4.2
A3C A30U C93U A115G | ≤ -4.2
A3C A52C U55A C57A G81A G94C | -4.03
A3C C35U C75A C129G | ≤ -4.2

— the RNAGym collection of RNA variant scans (doi:10.1073/pnas.2313332121)
